From patent US9803013B2, “Biological materials and uses thereof” (BioInvent International AB, priority 2005, dated 2017)

Legend:
DU145 = test: IgG binding to carcinoma cell line, flow cytometry MFI; set-up: species or system human; settings: DU145, Prostate carcinoma
Source text: (§1) The antigen distribution of human antibody targeted antigens, mainly for B11, on different carcinoma cell lines was investigated. Cells (MCF-7 and MDA MB 435S breast carcinoma, JAR and JEG-3 chorio-carcinoma, A549 lung carcinoma, TCC-SUP urinary bladder carcinoma, MDA MB 435 melanoma, HPAC, PANC-1 and BxPC-3 pancreatic carcinoma, PC-3 and DU145 prostate carcinoma, LS174 T, CaCo2, and Lovo colorectal carcinoma, and THP-1 monocytic leukaemia cells), were washed in PBS, and resuspended at 4×10^6 cells/ml in Complete Medium (200,000 cells/50 […] sample). […] Cells were incubated with either of the antibodies for 1 hour on ice, washed by resuspension in PBS/BSA 0.5%, centrifuged at 1200 rpm for 5 min, and complete aspiration of the supernatants was undertaken. Cells were incubated with PE-conjugated Goat F(ab′)2 anti-Human IgG (Caltag Laboratories, Cat no: H10104), diluted 1/50 in PBS/BSA 0.5%, for 30 min, on ice. Following resuspension of in 300 μl PBS/BSA 0.5%, cells were analysed for IgG binding using a FACScan instrument.

BxPC-3 = test: as above; set-up: species or system human; settings: BxPC-3, Pancreatic carcinoma
Source text: as §1

MDA MB 435S = test: as above; set-up: species or system human; settings: Mammary carcinoma
Source text: as §1

TCC-SUP = test: as above; set-up: species or system human; settings: Urinary bladder carcinoma
Source text: as §1

CaCo2 = test: as above; set-up: species or system human; settings: CaCo2, Colon carcinoma
Source text: as §1

JAR = test: as above; set-up: species or system human; settings: Chorio-carcinoma
Source text: as §1

Lovo = test: as above; set-up: species or system human; settings: Colon carcinoma
Source text: as §1

JEG-3 = test: as above; set-up: species or system human; settings: JEG-3, Chorio-carcinoma
Source text: as §1

A549 = test: as above; set-up: species or system human; settings: A549, Lung carcinoma
Source text: as §1

PANC-1 = test: as above; set-up: species or system human; settings: PANC-1, Pancreatic carcinoma
Source text: as §1

PC-3 = test: as above; set-up: species or system human
Source text: as §1

T cells = test: T cell proliferation (CFSE); format: cell-based, human; settings: immobilized (air-dried or wet coated) or in solution
Method: (FIG. 23F) Antibody induced T-cell proliferation. CFSE-labeled T-cells were incubated with BI-505, isotype control IgG or anti-CD3 (okt-3) IgG hyperimmobilised to cell culture plates by air-drying “A” or wet-coating “W”. Cells were cultured for 6 days, and T cell proliferation was monitored by flow-cytometry as decreased CFSE signals.
Cytokine release and T cell proliferation are thought to be common causes of mild and severe adverse reactions to antibody therapy. In order to further investigate any undesirable effects of BI-505 on ICAM-1 expressing immune cells, we therefore assessed putative effects of BI-505 on peripheral blood mononuclear cell (PBMC) cytokine release and T cell proliferation. In order to maximize the chances of identifying any PBMC-agonistic properties of BI-505, we used two different antibody-coating protocols in which the antibody was hyper-cross-linked as previously described (Stebbings et al., 2007).
T cells used in the proliferation assay were stained with CFSE (carboxyfluorescein diacetate, succinimidyl ester; Invitrogen). The CFSE-labeled cells were seeded at a density of 150,000 cells/well in wet and air-dried antibody-coated plates. The cells were cultured for 6 days with one renewal of medium after 3 days. AccuCheck Count Beads (Invitrogen) were used to ensure accurate quantification of cell proliferation in the flow cytometry. […]

ARH-77 tumors = test: SCID/ARH-77 subcutaneous xenograft model
Method: For subcutaneous grafting, 1-5×10^6 tumor cells (RPMI-8226, NCI-H929, EJM, OPM-2, ARH-77, or Daudi) were subcutaneously injected at a volume of 100 μl into the left flank of anesthetized mice as described in the Supplemental Information. […] Treatment with saline, isotype control IgG, bortezomib, lenalidomide, dexamethasone, or BI-505 started on day 5 (RPMI-8226). Treatment with melphalan started on day 10. BI-505 or isotype IgG mAb was administered i.v. at 2 mg/kg/inj twice weekly for 8 weeks; bortezomib at 1 mg/kg/inj once weekly for 8 weeks; lenalidomide orally at 2 mg/kg/inj for 2 cycles consisting of 5 days of treatment and 2 days of wash out; melphalan i.v. at 3 mg/kg/inj once weekly for 8 weeks; and dexamethasone at 6 mg/kg/inj three times weekly for 2 weeks.
Mice were anaesthetized with a mixture of sevofluran and oxygen prior to myeloma cell inoculation and 1-10×10^6 myeloma cells were then subcutaneously injected in a volume of 100 μl into the left flank. Treatment with antibodies by intraperitoneal injection started either 1 day after cell inoculation (prophylactic model) or when tumors reached approximately 100 mm^3 (established model). Antibodies were administered in 200 μL of PBS. Treatment with PBS only or isotype IgG were used as controls. Macrophages or NK-cells were depleted by i.p. administration of 0.1 ml clodronate liposomes (Clophosome-A, FormuMax, Scientific Inc. Palo Alto, USA) or 20 μl anti-asialo GM1 pCI Ab (CL8955, Cedarlane Laboratories Limited, Canada) respectively, starting one day prior to antibody treatment, followed by administration twice weekly for a total of three weeks, PBS was used as control.
Tumor size was measured using a digital calliper and tumor volumes were calculated according to the formula width^2×length×0.52, as previously described (Cao et al., 1999).
Statistical analyses of tumor growth inhibition relative to control antibody treatment were carried out using Kruskal-Wallis nonparametric ANOVA with Dunn's multiple comparisons test or Mann-Whitney non-parametric analysis, as indicated in the figure legends.

ICAM-3 = target: T1, ICAM-3 (Homo sapiens, UniProt P32942); test: Binding to recombinant ICAM family protein
T1 sequence (P32942 30-547): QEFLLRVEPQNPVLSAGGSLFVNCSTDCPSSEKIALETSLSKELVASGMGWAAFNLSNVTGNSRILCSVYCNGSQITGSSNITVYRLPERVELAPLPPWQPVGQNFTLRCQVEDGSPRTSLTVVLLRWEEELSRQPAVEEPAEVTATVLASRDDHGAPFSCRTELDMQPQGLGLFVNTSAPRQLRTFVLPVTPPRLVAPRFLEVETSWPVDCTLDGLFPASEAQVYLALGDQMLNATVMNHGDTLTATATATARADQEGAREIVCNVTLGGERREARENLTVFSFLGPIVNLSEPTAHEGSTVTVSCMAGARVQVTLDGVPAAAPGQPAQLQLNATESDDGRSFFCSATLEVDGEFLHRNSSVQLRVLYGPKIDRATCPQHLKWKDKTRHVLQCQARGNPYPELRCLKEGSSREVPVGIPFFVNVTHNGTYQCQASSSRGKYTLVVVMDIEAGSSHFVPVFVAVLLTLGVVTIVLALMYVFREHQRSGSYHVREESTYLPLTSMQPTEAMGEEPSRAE

[1] = tumors established for 12 days before start of antibody treatment

B1: B11: fully human IgG1 antibody specific for ICAM-1; VH and VL sequences of FIG. 10 (SEQ ID NOs. 6 and 8) (antibody, listed as Homo sapiens, V domains shown)
VH: EVQLLESGGGLVQPGGSLRLSCAASGFTFSNAWMSWVRQAPGKGLEWVAFIWYDGSNKYYADSVKGRFTISRDNSKNTLYLQMNSLRAEDTAVYYCARYSGWYFDYWGQGTLVTVSS
VL: QSVLTQPPSASGTPGQRVTISCTGSSSNIGAGYDVHWYQQLPGTAPKLLIYDNNNRPSGVPDRFSGSKSGTSASLAISGLRSEDEADYYCQSYDSSLSAWLFGGGTKLTVLG
MFI (DU145): 2200 | MFI (BxPC-3): 2000 | MFI (MDA MB 435S): 800 | MFI (TCC-SUP): 3200 | MFI (CaCo2): 800 | MFI (JAR): 2000 | MFI (Lovo): 1600 | MFI (JEG-3): 1600 | MFI (A549): 800 | MFI (PANC-1): 3800 | MFI (PC-3; PC-3, Prostate carcinoma): 1500 | binding (PC-3; PC-3 prostate carcinoma cells): strong binding | T cell proliferation (T cells): did not induce T cell proliferation | antitumor activity (ARH-77 tumors; dose-titration, dose of 0.2 mg/kg): near maximal | in vivo antitumor activity of Fc-variants, order (ARH-77 tumors; established ARH-77 tumors): IgG1 N297Q<IgG4<IgG1 | tumor macrophage infiltration (ARH-77 tumors; established ARH-77 tumors, F4/80+ immunohistochemistry): significantly increased tumor macrophage infiltration | tumor NK cell content (ARH-77 tumors; established ARH-77 tumors, immunohistochemistry): decreased tumor NK cell content | survival (ARH-77 tumors; prophylactic, 0.2 mg/kg, compared to 20 mg/kg rituximab): equally efficacious | injected mice in which tumor growth was prevented (ARH-77 tumors; prophylactic, 20 mg/kg twice-weekly from 1 day after tumor cell inoculation): 9 out of 10 | animal survival (ARH-77 tumors; [1]): prolonged animal survival | tumor growth (ARH-77 tumors; [1]): significantly reduced tumor growth | binding to recombinant protein (ICAM-3): not to ICAM-2 or ICAM-3
